No end group written: not given here.

We go through one molecule from patent US20250269025A1 (AVENCELL THERAPEUTICS, published 2025).

Assay [1] has as its target T1, CD123 on CD123 positive AML cells (Oci-AML3, Molm-13, MV4-11, primary AML cells) (human, UniProt P26951 19-378).
T1 construct: whole, on cells; Endogenous CD123 on human AML cell lines; also called target antigen CD123
The assay can be described thus: cellular binding assay per table caption, Molm-13 cells.

Assay [2] addresses T2, La epitope 5B9 (SEQ ID No. 28) fused to human Fc domain (human, also: fused to human Fc domain, order, isotype, linker not given here).
T2 construct: Coupled to a CM5 sensor chip; not shown: human Fc domain
T2 chain: KPLPEVTDEY
Put plainly: SPR, Biacore X100, La epitope 5B9-human Fc on CM5 chip; KD 5B9 (second number of the cell). The procedure:
Furthermore, binding of different variants of the targeting module according to the invention was analyzed using the La epitope 5B9 (SEQ ID No. 28) fused to human Fc domain which was coupled to a CM5 sensor chip on a Biacore X100 device (FIG. 3). The targeting modules were purified monomers. The targeting modules were concentrated between 2.47 to 200 nM and measured in technical duplicates. For data fitting and KD calculation a two-state-reaction binding model was applied.
In general terms: Surface plasmon resonance follows binding to a sensor surface in real time, without labels.

In a further assay the target is T3, human CD123-Fc (human, UniProt P26951 19-305, limits assumed).
T3 construct: Coupled to a CM5 sensor chip; also called soluble recombinant CD123; not shown: Fc part
T3 sequence (looked up): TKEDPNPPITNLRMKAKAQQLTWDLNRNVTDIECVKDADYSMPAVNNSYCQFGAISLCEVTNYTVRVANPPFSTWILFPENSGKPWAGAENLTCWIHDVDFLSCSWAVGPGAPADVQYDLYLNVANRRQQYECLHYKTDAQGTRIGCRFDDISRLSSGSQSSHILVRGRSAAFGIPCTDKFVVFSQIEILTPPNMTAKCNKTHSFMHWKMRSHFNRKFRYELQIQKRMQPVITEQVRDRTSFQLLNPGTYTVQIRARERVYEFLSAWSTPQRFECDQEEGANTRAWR
The assay can be described thus: SPR, Biacore X100, human CD123-Fc on CM5 chip, 1:1 model; KD CD123 (first number of the cell). The procedure:
Binding of different variants of the targeting module according to the invention was analyzed by SPR measurements using human CD123-Fc coupled to a CM5 sensor chip on a Biacore X100 device (FIG. 2). Targeting modules were purified monomer except for the targeting module according to SEQ ID No. 8. […] For data fitting and KD calculation a 1:1 binding model was applied.

In assay [3] the target is T1, CD123 on CD123 positive AML cells …. Put plainly: cellular binding assay per table caption, Oci-AML3 cells.

B1: targeting module according to SEQ ID No. 4 (bispecific antibody)
chain: GQVQLVQSGAEVKKPGASVKMSCKASGYTFTDYYMKWVKQAPGQGLEWIGDIIPSNGATFYNQKFQGRATLTVDTSTSTAYMELSSLRSEDTAVYYCTRSHLLRASWFAYWGQGTLVTVSSASGGGGSGGGGSGGGGSDIVMTQSPDSLAVSLGERATINCKSSQSLLNSGNQKNYLTWYLQKPGQPPKLLIYWASTRESGVPDRFSGSGSGTDFTLTISSVQAEDVAVYYCQNDYSYPYTFGGGTKLEIKAAARGDIVMTQSPDSLAVSLGERVTMNCKSSQSLLNSRTPKNYLAWYQQKPGQSPKLLIYWASTRKSGVPDRFSGSGSGTDFTLTISSVQAEDVAVYYCKQSYNLLTFGGGTKLEIKGGGGSGGGGSGASAAGGGGSGGGGSQVQLVESGAEVVKPGASVKLSCKASGYAFTHYYIYWIKQAPGQGLEWIGGVNPSNGGTHFNEKFKSRATLTVDTSISTAYMELSRLRSDDTAVYYCTRSEYDYGLGFAYWGQGTLVTVSSGGGGSHHHHHHHH
notes: also called huCD123_2 + rs5B9-VLVH
One may read the EC50 as the concentration that produces a half-maximal response. Low values mean a more potent agent, high ones a less potent agent. In general, Kd refers to the concentration at which binding is half-saturated. A higher Kd goes with lower affinity. Regarding B1, the EC50 worked out at 0.0071 nM in assay [1] and 0.026 nM in assay [3]. Further, the equilibrium dissociation constant (Kd) in assay [2] is 3.4 nM; with human CD123-Fc it was 5.2 nM.
